What was measured:
[1] = target: mNrxn1β^+SS4-FLAG (C-terminally FLAG-tagged mouse Nrxn1β containing the SS4 insert) (mouse) (UniProt P0DI97); assay: saturation binding on cells with Scatchard analysis
[2] = target: mNrxn1β^−SS4-FLAG (C-terminally FLAG-tagged mouse Nrxn1β lacking the SS4 insert) (mouse); assay: as above

Chain of mNrxn1β^+SS4-FLAG (C-terminally FLAG-tagged mouse Nrxn1β containing the SS4 insert) (mouse) (P0DI97 47-468): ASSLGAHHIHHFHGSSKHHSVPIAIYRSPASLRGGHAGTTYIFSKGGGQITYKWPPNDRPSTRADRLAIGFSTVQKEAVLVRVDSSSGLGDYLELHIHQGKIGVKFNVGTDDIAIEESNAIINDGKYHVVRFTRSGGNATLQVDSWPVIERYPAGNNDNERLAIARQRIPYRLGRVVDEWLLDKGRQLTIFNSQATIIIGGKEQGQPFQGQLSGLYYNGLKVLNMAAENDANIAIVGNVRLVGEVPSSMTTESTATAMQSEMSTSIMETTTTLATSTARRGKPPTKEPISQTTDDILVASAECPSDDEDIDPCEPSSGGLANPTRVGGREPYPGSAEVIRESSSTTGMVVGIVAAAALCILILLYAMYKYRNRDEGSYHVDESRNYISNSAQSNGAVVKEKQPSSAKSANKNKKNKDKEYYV

- Kd [1]: 51.4 nM
- Kd [2]: 106 nM
Substance: Ig-Clstn3 (Ig-fused calsyntenin-3) (from UniProt Q99JH7 20-956) (Fc fusion)

From paper doi:10.1101/2020.01.24.918722
